Results as given in US20260201033A1 (LTZ THERAPEUTICS, published 2026).
Read-outs that look alike come from different tables or passages of the source. One block for each binder: values may come before it.

Legend:
[1] = molecular target: T1, Human C-type lectin domain family 5 member A (CLEC5A), endogenous on human monocytes and M0 macrophages (human, UniProt Q9NY25 1-188); experiment: flow cytometry on human M0 macrophages, anti-human IgG PE
T1 construct: Endogenous CLEC5A on primary human monocytes and monocyte-derived M0 macrophages; also called MDL-1; M0 macrophages (CLEC5A+) cells
T1 sequence: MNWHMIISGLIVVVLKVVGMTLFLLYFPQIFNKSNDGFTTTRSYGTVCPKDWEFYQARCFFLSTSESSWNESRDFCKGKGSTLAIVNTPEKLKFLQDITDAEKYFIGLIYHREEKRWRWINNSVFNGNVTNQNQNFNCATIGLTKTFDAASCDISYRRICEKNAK

[2] = molecular target: T2, HER2 on SK-BR-3 cells (UniProt P04626 23-1255, limits assumed); experiment: cell-based or functional assay
[3] = molecular target: T3, human EGFR (ACROBiosystems, Cat #: EGR-H5222) (human, UniProt P00533 25-645); experiment: ELISA, plate coated with human EGFR
T3 construct: Bought protein; also called recombinant human EGFR protein

[4] = molecular target: T4, EpCAM on DLD-1 cells (human, UniProt P16422 24-314); experiment: flow cytometry on DLD-1 cells (EPCAM+), anti-human IgG PE
T4 construct: whole, on cells; also called DLD-1 cells (EPCAM+); hEpCAM
T4 sequence (looked up): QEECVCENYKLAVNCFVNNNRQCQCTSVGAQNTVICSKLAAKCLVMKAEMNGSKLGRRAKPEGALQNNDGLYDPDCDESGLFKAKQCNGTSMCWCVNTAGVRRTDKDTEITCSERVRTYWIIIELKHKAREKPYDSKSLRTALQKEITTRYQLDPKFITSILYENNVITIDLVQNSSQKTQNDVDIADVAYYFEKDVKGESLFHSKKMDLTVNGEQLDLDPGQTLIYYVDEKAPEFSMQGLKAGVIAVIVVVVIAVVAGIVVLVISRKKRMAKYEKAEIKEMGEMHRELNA

[5] = molecular target: T5, Human CLEC5A His Tag protein (ACROBiosystems, Cat #: CLA-H5243) (human, UniProt Q9NY25 28-188, limits assumed); experiment: ELISA, plate coated with human CLEC5A
T5 construct: Bought protein with a His tag; also called recombinant human CLEC5A protein
T5 sequence: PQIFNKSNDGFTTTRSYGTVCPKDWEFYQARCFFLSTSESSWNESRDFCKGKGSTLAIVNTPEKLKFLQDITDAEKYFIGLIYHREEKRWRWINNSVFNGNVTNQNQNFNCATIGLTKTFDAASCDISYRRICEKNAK

[6] = molecular target: T1, Human C-type lectin domain family 5 …; experiment: flow cytometry on human M0 macrophages, anti-human IgG PE; remark: listed apart in the source
[7] = molecular target: T4, EpCAM on DLD-1 cells; experiment: cell-based or functional assay
[8] = molecular target: T2, HER2 on SK-BR-3 cells; experiment: cell-based or functional assay; remark: listed apart in the source
[9] = molecular target: T6, CD79b on Ramos cells and on endogenous B cells of human PBMCs (human, UniProt P40259 29-229); experiment: cell-based or functional assay
T6 sequence (looked up): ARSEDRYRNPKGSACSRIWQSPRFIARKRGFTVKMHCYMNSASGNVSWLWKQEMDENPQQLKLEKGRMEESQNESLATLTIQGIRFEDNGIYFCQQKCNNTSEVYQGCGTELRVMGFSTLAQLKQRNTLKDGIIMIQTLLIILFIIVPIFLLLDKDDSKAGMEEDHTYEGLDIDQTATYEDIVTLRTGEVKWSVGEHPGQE

[10] = molecular target: T6, CD79b on Ramos cells and on endogenous …; experiment: cell-based or functional assay; remark: listed apart in the source
[11] = molecular target: T6, CD79b on Ramos cells and on endogenous …; experiment: cell-based or functional assay; remark: listed apart in the source
[12] = molecular target: T6, CD79b on Ramos cells and on endogenous …; experiment: cell-based or functional assay; remark: listed apart in the source
[13] = molecular target: T6, CD79b on Ramos cells and on endogenous …; experiment: cell-based or functional assay; remark: listed apart in the source
[14] = molecular target: T6, CD79b on Ramos cells and on endogenous …; experiment: flow cytometry on Ramos cells (CD79b+), anti-human IgG PE, MFI (PE)
[15] = molecular target: T6, CD79b on Ramos cells and on endogenous …; experiment: cell-based or functional assay; remark: listed apart in the source

EC50 [1]: 0.611 nM
B1: HER2/3A7 (1+1 A) Fc-silenced (bispecific antibody, human IgG1, kappa, L234A L235A)
heavy 1: not shown
heavy 2: not shown
light 1: not shown
light 2: AVVMTQTPASVEAAVGGTVTINCQASQRINNYLSWFQQKPGQPPKLLIYGAATLASGVPSRFKGSGSGTEYTLTISDLEPADAATYYCQCTYGIPSSNYGFGGGTEVVVKSSASTKGPSVFPLAPSSKSTSGGTAALGCLVKDYFPEPVTVSWNSGALTSGVHTFPAVLQSSGLYSLSSVVTVPSSSLGTQTYICNVNHKPSNTKVDKKVEPKSC
notes: also called HER2/3A7 (1+1 A) Fc-LALAPG
IC50 (nM), SK-BR-3 cell killing by M0 macrophages (E:T 5:1) [2]: 0.114 nM

EC50 [3]: 0.022 µg/mL
B2: Necitumumab (antibody, V domains shown)
VH: QVQLQESGPGLVKPSQTLSLTCTVSGGSISSGDYYWSWIRQPPGKGLEWIGYIYYSGSTDYNPSLKSRVTMSVDTSKNQFSLKVNSVTAADTAVYYCARVSIFGVGTFDYWGQGTLVTVSS
VL: EIVMTQSPATLSLSPGERATLSCRASQSVSSYLAWYQQKPGQAPRLLIYDASNRATGIPARFSGSGSGTDFTLTISSLEPEDFAVYYCHQYGSTPLTFGGGTKAEIK

EC50 [4]: 1.1 nM
EC50 [5]: 0.064 µg/mL
EC50 [6]: 7.35 nM
B3: EpCAM/5C7 (2+2 A) Fc-optimized (bispecific antibody, human IgG1, kappa)
heavy: QVQLQQSGAELVRPGTSVKVSCKASGYAFTNYLIEWVKQRPGQGLEWIGVINPGSGGTNYNEKFKGKATLTADKSSSTAYMQLSSLTSDDSAVYFCARDGPWFAYWGQGTLVTVSAASTKGPSVFPLAPSSKSTSGGTAALGCLVKDYFPEPVTVSWNSGALTSGVHTFPAVLQSSGLYSLSSVVTVPSSSLGTQTYICNVNHKPSNTKVDKKVEPKSCDKTHTCPPCPAPELLAGPSVFLFPPKPKDTLMISRTPEVTCVVVDVSHEDPEVKFNWYVDGVEVHNAKTKPREEQYNSTYRVVSVLTVLHQDWLNGKEYKCKVSNKALPLPEEKTISKAKGQPREPQVYTLPPSRDELTKNQVSLTCLVKGFYPSDIAVEWESNGQPENNYKTTPPVLDSDGSFFLYSKLTVDKSRWQQGNVFSCSVMHEALHNHYTQKSLSLSPGK
light: NIVMTQSPKSMSMSVGERVTLTCKASENVVTYVSWYQQKPEQSPKLLIYGASNRYTGVPDRFTGSGSATDFTLTISSVQAEDLADYHCGQGYSYPYTFGGGTKLEIKRTVAAPSVFIFPPSDEQLKSGTASVVCLLNNFYPREAKVQWKVDNALQSGNSQESVTEQDSKDSTYSLSSTLTLSKADYEKHKVYACEVTHQGLSSPVTKSFNRGECGGGGSGGGGSGGGGSAIVMTQTPSSKSVPVGDTVTINCQASESVDRNNRLAWFQQKPGQPPKLLIYTTSTLASGVPSRFKGSGSGTHFTLTISDVVPDDAATYYCAGYRGAHTDGDAFGCGTEVVVKGGGGSGGGGSGGGGSGGGGSQSLEESGGDLVKPGASLTLTCTASGFSFSRSSYMCWVRQAPGKCLEWIGCLSVGDGHTYYASWAKGRFTISKTSSTSVTLQMTRLTAADTATYFCARAPSYSGDGGHGYDLWGPGTLVTVSS
notes: also called EpCAM/CLEC5A (2+2 A) Fc-optimized antibody; EpCAM/CLEC5A bispecific antibody
IC50 (nM), DLD-1 cell killing by M0 macrophages [7]: 0.0035 nM

EC50 [1]: 1.49 nM
B4: HER2/5C7 (1+1 A) Fc-silenced (bispecific antibody, human IgG1, kappa, L234A L235A)
heavy 1: not shown
heavy 2: not shown
light 1: not shown
light 2: AIVMTQTPSSKSVPVGDTVTINCQASESVDRNNRLAWFQQKPGQPPKLLIYTTSTLASGVPSRFKGSGSGTHFTLTISDVVPDDAATYYCAGYRGAHTDGDAFGGGTEVVVKSSASTKGPSVFPLAPSSKSTSGGTAALGCLVKDYFPEPVTVSWNSGALTSGVHTFPAVLQSSGLYSLSSVVTVPSSSLGTQTYICNVNHKPSNTKVDKKVEPKSC
notes: also called HER2/5C7 (1+1 A) Fc-LALAPG
IC50 (nM), SK-BR-3 cell killing by M0 macrophages in the presence of hIgG1 [8]: 0.00632 nM
IC50 (nM), SK-BR-3 cell killing by M0 macrophages in the presence of media [8]: 0.0481 nM
IC50 (nM), SK-BR-3 cell killing by M0 macrophages in the presence of plasma [8]: 0.433 nM
IC50 (nM), SK-BR-3 cell killing by M0 macrophages (E:T 5:1) [2]: 0.148 nM

EC50 [4]: 0.67 nM
B5: anti-EpCAM antibody (Solitomab EpCAM binding part IgG form) (antibody, V domains shown)
VH: QVQLQQSGAELVRPGTSVKVSCKASGYAFTNYLIEWVKQRPGQGLEWIGVINPGSGGTNYNEKFKGKATLTADKSSSTAYMQLSSLTSDDSAVYFCARDGPWFAYWGQGTLVTVSA
VL: NIVMTQSPKSMSMSVGERVTLTCKASENVVTYVSWYQQKPEQSPKLLIYGASNRYTGVPDRFTGSGSATDFTLTISSVQAEDLADYHCGQGYSYPYTFGGGTKLEIK
notes: IgG form
IC50 (nM), DLD-1 cell killing by M0 macrophages [7]: 0.0812 nM

EC50 (read off the curve) [14]: ~1 nM
B6: CD79b/5C7 (2+2 B) Fc-optimized (bispecific antibody, human IgG1, kappa)
heavy: EQQLVETGGGLIQPGGSLRLSCAASGFTINIDYWISWVRQAPGKGLEWIGIIDPGDGTTYFAIWVSGRFTISFDNSKNTVYLQMNSLRAEDTAVYFCVREFSASAYQYDLWGPGTLVTVSSASTKGPSVFPLAPSSKSTSGGTAALGCLVKDYFPEPVTVSWNSGALTSGVHTFPAVLQSSGLYSLSSVVTVPSSSLGTQTYICNVNHKPSNTKVDKKVEPKSCDKTHTCPPCPAPELLAGPSVFLFPPKPKDTLMISRTPEVTCVVVDVSHEDPEVKFNWYVDGVEVHNAKTKPREEQYNSTYRVVSVLTVLHQDWLNGKEYKCKVSNKALPLPEEKTISKAKGQPREPQVYTLPPSRDELTKNQVSLTCLVKGFYPSDIAVEWESNGQPENNYKTTPPVLDSDGSFFLYSKLTVDKSRWQQGNVFSCSVMHEALHNHYTQKSLSLSPGGGGGSGGGGSGGGGSDIQMTQSPSSLSASVGDRVTITCQASESVDRNNRLAWFQQKPGKPPKLLIYTTSTLASGVPSRFSGSGSGTDFTLTISSLQPEDVATYYCAGYRGAHTDGDAFGCGTKVEIKGGGGSGGGGSGGGGSGGGGSEQQLVESGGGLVKPGGSLRLSCAASGFSFSRSSYMCWVRQAPGKCLEWIGCLSVGDGHTYYASWAKGRFTISKDSAKNSVYLQMNSLRAEDTAVYFCARAPSYSGDGGHGYDLWGPGTLVTVSS
light: ELVMTQSPATLSVSPGERATLSCRASEDIENYLAWYQQKPGQPPRLLIYRASTLSSGVPARFSGSGSGTEFTLTISSLQSEDFAVYYCQQGYRNSNVDNPFGGGTKVEIKRTVAAPSVFIFPPSDEQLKSGTASVVCLLNNFYPREAKVQWKVDNALQSGNSQESVTEQDSKDSTYSLSSTLTLSKADYEKHKVYACEVTHQGLSSPVTKSFNRGEC
IC50 (nM), killing of endogenous B cells by PBMCs, Donor 234 [9]: 0.0156 nM
IC50 (nM), Ramos cell killing by M0 macrophages, Donor 022 [10]: 0.012 nM
IC50 (nM), Ramos cell killing by M0 macrophages, Donor 159 [10]: 0.001 nM
IC50 (nM), Ramos cell killing by M0 macrophages, Donor 161 [10]: 0.001 nM
IC50 (nM), Ramos cell killing by M0 macrophages, Donor 431 [10]: 0.002 nM
IC50 (nM), Ramos cell killing by M1 macrophages, Donor 431 [11]: 0.002 nM
IC50 (nM), Ramos cell killing by M2 macrophages, Donor 022 [12]: 0.006 nM
IC50 (nM), Ramos cell killing by M2 macrophages, Donor 431 [12]: 0.001 nM
IC50 (nM), Ramos cell killing by PBMCs (test 2), Donor 234 [13]: 0.0298 nM
IC50 (nM), Ramos cell killing by PBMCs (test 2), Donor 431 [13]: 0.0168 nM
IC50 (nM), Ramos cell killing by PBMCs (test 3), Donor 281 [15]: 0.28 nM
IC50 (nM), Ramos cell killing by PBMCs (test 3), Donor 367 [15]: 0.0295 nM
